According to the supplement of paper PMC10065799, “High-throughput profiling of sequence recognition by tyrosine kinases and SH2 domains using bacterial peptide display” (eLife, 2023):

Legend:
[1] = target: FGFR3 (UniProt P22607); assay: phosphorylation enrichment, bacterial display (enrichment ratio); higher = better substrate or ligand; peptides without Tyr show the background
[2] = test system: AncSZ; assay: as above
[3] = target: EPHB2 (UniProt P29323); assay: as above
[4] = target: FGFR1 (UniProt P11362); assay: as above
[5] = target: Fyn (UniProt P06241); assay: as above
[6] = target: Fes (UniProt P07332); assay: as above
Chain of Fes (P07332 whole entry, looked up): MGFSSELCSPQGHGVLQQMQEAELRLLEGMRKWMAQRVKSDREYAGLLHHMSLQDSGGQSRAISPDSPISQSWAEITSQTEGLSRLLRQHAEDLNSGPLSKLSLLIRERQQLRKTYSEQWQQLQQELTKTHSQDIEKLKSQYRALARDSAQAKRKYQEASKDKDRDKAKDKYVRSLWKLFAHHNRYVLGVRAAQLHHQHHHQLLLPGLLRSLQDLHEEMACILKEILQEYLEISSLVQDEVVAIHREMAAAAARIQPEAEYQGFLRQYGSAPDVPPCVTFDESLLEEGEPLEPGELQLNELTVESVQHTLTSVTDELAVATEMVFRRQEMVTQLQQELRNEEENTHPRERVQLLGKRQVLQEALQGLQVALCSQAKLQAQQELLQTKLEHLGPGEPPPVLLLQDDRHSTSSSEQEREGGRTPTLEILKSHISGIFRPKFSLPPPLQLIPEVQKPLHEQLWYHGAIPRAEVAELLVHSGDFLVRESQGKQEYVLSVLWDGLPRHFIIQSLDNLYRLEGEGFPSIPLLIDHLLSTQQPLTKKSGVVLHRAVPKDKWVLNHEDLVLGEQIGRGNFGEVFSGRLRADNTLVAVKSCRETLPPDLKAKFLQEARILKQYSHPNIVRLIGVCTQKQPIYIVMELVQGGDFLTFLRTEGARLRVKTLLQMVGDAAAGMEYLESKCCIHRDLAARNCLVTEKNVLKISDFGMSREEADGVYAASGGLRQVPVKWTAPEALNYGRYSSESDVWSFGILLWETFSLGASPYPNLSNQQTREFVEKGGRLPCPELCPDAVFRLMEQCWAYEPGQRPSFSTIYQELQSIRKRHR

[7] = test system: c-Src; assay: as above
[8] = target: MERTK (UniProt Q12866); assay: as above
Chain of MERTK (Q12866 whole entry, looked up): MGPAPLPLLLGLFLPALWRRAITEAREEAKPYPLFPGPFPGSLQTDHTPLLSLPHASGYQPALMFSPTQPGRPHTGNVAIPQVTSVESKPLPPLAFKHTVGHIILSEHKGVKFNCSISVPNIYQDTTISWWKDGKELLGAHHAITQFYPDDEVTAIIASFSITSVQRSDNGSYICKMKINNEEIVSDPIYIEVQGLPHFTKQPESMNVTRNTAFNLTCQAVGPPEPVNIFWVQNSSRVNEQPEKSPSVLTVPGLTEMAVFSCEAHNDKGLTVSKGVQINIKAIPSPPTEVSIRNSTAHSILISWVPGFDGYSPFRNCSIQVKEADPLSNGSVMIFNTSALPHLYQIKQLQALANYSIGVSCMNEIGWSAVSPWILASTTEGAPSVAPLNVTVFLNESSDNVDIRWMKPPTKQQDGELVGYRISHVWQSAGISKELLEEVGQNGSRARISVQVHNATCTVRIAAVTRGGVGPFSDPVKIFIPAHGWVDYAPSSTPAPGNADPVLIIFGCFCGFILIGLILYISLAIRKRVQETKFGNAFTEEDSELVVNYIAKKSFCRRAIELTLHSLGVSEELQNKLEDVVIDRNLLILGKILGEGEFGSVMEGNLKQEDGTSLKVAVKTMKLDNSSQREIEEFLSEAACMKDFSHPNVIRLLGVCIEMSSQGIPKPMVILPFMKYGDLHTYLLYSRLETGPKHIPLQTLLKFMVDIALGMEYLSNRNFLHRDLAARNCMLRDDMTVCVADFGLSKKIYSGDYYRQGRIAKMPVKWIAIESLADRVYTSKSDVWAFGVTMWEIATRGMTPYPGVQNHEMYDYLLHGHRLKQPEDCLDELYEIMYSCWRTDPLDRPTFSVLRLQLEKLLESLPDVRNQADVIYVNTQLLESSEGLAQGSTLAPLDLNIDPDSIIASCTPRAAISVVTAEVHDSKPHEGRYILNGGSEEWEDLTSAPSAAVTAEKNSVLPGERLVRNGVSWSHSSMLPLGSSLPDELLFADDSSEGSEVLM

[9] = target: Jak2 (UniProt O60674); assay: as above
Chain of Jak2 (O60674 whole entry, looked up): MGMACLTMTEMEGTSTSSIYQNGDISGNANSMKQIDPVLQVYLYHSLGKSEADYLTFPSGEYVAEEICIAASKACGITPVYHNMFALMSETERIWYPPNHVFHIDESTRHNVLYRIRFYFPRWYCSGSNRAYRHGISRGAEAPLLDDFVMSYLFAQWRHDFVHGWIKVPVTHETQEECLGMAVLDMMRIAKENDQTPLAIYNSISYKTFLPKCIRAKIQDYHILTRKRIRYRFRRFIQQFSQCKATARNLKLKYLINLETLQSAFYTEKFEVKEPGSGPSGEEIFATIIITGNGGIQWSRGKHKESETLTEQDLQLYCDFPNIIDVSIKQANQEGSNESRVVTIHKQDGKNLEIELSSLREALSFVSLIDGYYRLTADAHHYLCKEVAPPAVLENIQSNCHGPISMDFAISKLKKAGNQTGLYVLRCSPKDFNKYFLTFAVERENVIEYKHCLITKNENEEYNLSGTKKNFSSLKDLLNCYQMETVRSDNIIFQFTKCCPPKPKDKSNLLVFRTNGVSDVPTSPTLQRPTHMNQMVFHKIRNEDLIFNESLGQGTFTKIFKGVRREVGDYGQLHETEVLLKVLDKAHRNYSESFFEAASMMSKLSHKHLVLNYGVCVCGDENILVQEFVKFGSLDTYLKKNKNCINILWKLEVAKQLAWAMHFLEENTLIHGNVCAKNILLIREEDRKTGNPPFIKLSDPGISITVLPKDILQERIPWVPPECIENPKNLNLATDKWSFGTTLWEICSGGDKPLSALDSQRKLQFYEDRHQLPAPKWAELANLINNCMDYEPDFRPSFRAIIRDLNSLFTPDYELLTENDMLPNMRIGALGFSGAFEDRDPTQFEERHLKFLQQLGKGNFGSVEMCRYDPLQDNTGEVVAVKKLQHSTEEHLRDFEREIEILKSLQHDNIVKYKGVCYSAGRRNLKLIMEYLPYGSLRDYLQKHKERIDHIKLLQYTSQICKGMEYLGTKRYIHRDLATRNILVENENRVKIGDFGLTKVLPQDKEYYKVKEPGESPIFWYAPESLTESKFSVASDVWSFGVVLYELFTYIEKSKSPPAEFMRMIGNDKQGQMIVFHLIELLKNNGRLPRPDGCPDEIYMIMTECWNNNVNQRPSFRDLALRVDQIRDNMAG

[10] = test system: c-Abl (mouse); assay: as above
[11] = target: Hck (UniProt P08631); assay: as above
Chain of Hck (P08631 whole entry, looked up): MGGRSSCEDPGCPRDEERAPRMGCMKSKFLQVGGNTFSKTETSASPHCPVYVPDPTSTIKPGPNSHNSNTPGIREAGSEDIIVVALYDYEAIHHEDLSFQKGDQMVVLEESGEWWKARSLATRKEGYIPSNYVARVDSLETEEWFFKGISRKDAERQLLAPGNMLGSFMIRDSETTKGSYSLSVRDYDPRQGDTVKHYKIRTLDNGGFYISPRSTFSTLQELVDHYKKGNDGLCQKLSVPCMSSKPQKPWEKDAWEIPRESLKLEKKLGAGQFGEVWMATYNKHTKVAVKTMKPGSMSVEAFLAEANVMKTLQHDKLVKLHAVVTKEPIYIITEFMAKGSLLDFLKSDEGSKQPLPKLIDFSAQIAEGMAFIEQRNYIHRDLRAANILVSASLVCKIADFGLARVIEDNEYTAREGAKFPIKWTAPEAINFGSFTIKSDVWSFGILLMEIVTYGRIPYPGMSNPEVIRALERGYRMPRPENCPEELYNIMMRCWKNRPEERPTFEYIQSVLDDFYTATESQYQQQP

[12] = test system: Fer (mouse); assay: as above
[13] = target: EPHB1 (UniProt P54762); assay: as above
Chain of EPHB1 (P54762 whole entry, looked up): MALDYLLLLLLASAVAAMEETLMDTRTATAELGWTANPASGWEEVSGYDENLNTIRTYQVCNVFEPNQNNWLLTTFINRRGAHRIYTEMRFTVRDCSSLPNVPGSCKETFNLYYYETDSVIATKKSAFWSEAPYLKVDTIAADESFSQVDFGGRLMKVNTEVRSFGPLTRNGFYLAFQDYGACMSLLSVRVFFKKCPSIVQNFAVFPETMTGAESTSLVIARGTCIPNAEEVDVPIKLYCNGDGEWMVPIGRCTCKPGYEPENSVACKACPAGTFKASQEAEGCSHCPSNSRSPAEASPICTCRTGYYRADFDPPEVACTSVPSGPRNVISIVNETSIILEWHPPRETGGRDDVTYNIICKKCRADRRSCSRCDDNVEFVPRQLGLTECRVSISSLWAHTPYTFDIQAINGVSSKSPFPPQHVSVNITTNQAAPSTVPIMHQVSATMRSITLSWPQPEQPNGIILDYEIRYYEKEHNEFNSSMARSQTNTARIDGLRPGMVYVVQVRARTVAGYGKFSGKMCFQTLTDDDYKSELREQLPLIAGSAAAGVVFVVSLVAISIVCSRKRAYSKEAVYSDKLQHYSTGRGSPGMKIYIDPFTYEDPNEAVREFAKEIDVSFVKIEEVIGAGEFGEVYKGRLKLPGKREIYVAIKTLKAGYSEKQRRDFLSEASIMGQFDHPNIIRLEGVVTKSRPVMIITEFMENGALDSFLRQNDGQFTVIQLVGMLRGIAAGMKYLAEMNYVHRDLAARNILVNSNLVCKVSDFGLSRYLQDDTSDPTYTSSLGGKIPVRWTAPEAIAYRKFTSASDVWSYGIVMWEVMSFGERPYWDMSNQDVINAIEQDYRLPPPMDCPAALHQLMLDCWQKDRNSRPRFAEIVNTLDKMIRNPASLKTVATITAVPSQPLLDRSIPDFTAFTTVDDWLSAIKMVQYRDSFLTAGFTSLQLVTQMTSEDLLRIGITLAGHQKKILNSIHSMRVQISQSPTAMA

[14] = target: SHP2-C SH2; assay: SH2 binding enrichment of the phosphorylated peptide, bacterial display (enrichment ratio); higher = better substrate or ligand; peptides without Tyr show the background
[15] = target: c-Src SH2; assay: as above
[16] = target: Grb2 SH2 (UniProt P62993); assay: as above
Chain of Grb2 SH2 (P62993 whole entry, looked up, the tested form may be a part): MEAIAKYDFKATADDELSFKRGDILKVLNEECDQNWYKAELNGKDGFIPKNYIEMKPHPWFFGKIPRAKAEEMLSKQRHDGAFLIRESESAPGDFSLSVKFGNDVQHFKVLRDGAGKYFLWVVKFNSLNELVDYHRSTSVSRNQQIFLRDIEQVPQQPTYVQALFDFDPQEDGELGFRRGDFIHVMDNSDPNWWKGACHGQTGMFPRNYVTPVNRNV
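For SH2 binding enrichment of the phosphorylated peptide, bacterial display in this document: peptide library displayed on the E. coli surface as eCPX fusions, selected cells deep-sequenced, score is each peptide's frequency after selection divided by its frequency in the input.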
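For phosphorylation enrichment, bacterial display in this document: 11-residue human phosphosite peptides and single-mutation variants displayed on the E. coli surface, counted by deep sequencing, each peptide's frequency after selection divided by its frequency in the unselected input library; frequency after pTyr selection over input frequency; kinase dosed for 20-30% of maximal phosphorylation in three min.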

Row | Sequence | phosphorylation enrichment [1] | phosphorylation enrichment [2] | phosphorylation enrichment [3] | phosphorylation enrichment [4] | phosphorylation enrichment [5] | phosphorylation enrichment [6] | phosphorylation enrichment [7] | phosphorylation enrichment [8] | phosphorylation enrichment [9] | phosphorylation enrichment [10] | phosphorylation enrichment [11] | phosphorylation enrichment [12] | phosphorylation enrichment [13] | SH2 binding enrichment [14] | SH2 binding enrichment [15] | SH2 binding enrichment [16]
1 | DDERGYRRVRC [GIGYF2_Y268_S273C] | 0.562 | 0.75 | 0.551 | 0.533 | 0.529 | 0.882 | 0.426 | 0.438 | 0.834 | 0.647 | 0.483 | 0.513 | 0.519 | 0.788 | 0.658 | 1.09
2 | DDHFTYSRYPW [LY75_Y888] | 0.969 | 1.49 | 7.92 | 0.576 | 4.82 | 1.13 | 5.2 | 1.23 | 1.13 | 1.86 | 6.62 | 0.642 | 4.66 | 0.942 | 0.432 | 0.531
3 | DFFDLYGGEKK [PTPN11_Y66_F71K_YF] | 0.772 | 1.17 | 0.79 | 0.562 | 1.32 | 1.38 | 2.26 | 0.499 | 1.16 | 0.827 | 2.81 | 0.566 | 0.511 | 0.86 | 0.601 | 0.994
4 | DFPMGYPSFLA [TBCK_Y153_I151M_YF] | 0.49 | 0.64 | 0.469 | 0.424 | 0.424 | 0.832 | 0.428 | 0.429 | 0.691 | 0.592 | 0.358 | 0.432 | 0.496 | 0.523 | 0.354 | 0.672
5 | DFPMGYPSYLA [TBCK_Y153_I151M] | 0.473 | 0.65 | 0.453 | 0.412 | 0.443 | 0.751 | 0.416 | 0.464 | 0.663 | 0.507 | 0.367 | 0.362 | 0.399 | 0.827 | 0.572 | 0.825
6 | DFSLKYPTDIP [APC_Y1183_A1184P_YF] | 0.685 | 1.03 | 0.599 | 0.459 | 0.452 | 1.18 | 0.534 | 0.52 | 0.943 | 0.702 | 0.46 | 0.616 | 0.528 | 0.618 | 0.386 | 0.768
7 | DGMADCSDPSF [CDC5L_Y459_Y459C_YF] | 0.701 | 1.21 | 0.659 | 0.533 | 0.524 | 1.29 | 0.582 | 0.525 | 1.01 | 1 | 0.6 | 0.627 | 0.627 | 0.853 | 0.635 | 0.984
8 | DIDKIYIRTGI [PIK3CA_Y355_V356I] | 0.673 | 1.25 | 0.543 | 0.521 | 0.479 | 1.01 | 0.395 | 0.342 | 1.06 | 0.576 | 0.481 | 0.839 | 0.585 | 0.896 | 0.623 | 0.857
9 | DIPIRYSIMGV [CDH4_Y205_T208M] | 0.695 | 1.13 | 0.603 | 0.481 | 0.455 | 1.14 | 0.448 | 0.523 | 1 | 0.723 | 0.352 | 0.421 | 0.473 | 2.51 | 1.31 | 0.894
10 | DKNSSYFADWF [TUBB8_Y340_L345F] | 1.62 | 0.992 | 0.507 | 2.44 | 0.479 | 1.01 | 0.435 | 2.04 | 1.32 | 0.613 | 0.397 | 0.345 | 0.676 | 0.821 | 0.681 | 0.984
11 | DLEKTYNTYRS [B4GALNT2_Y538_A533D] | 0.703 | 0.848 | 0.509 | 0.554 | 0.845 | 0.788 | 1.03 | 0.424 | 0.823 | 0.441 | 0.761 | 0.401 | 0.382 | 0.511 | 0.43 | 0.654
12 | DLKFHYDNTAG [KDR_Y1214_P1210L] | 0.661 | 0.804 | 0.504 | 0.517 | 0.484 | 1 | 0.426 | 0.415 | 0.889 | 0.663 | 0.462 | 0.466 | 0.515 | 0.598 | 0.552 | 0.867
13 | DPAFGYEDFTR [SESN2_Y323_T320A] | 0.775 | 1.08 | 0.577 | 0.569 | 0.533 | 1.21 | 0.59 | 0.445 | 0.987 | 0.764 | 0.594 | 0.457 | 0.455 | 0.693 | 5.24 | 0.991
14 | DPHECYAKVFN [ALB_Y394_D399N] | 0.643 | 0.844 | 0.586 | 0.589 | 0.552 | 0.952 | 0.624 | 0.504 | 0.847 | 0.91 | 0.81 | 0.529 | 0.549 | 1.81 | 1.4 | 1.11
15 | DPLLTHRFPPK [LMNA_Y481_Y481H] | 0.43 | 0.434 | 0.242 | 0.459 | 0.411 | 0.521 | 0.406 | 0.421 | 0.571 | 0.395 | 0.381 | 0.36 | 0.288 | 0.661 | 0.458 | 0.834
16 | DPLLTYRFPPN [LMNA_Y481_K486N] | 0.861 | 0.882 | 0.455 | 0.766 | 0.51 | 0.751 | 0.65 | 0.497 | 0.768 | 0.649 | 0.503 | 0.472 | 0.446 | 0.66 | 0.605 | 0.747
17 | DPNQQYFIAMD [TBX15_Y159_H156N_YF] | 0.866 | 1.07 | 0.443 | 0.892 | 0.444 | 0.934 | 0.482 | 0.356 | 0.911 | 0.672 | 0.493 | 0.403 | 0.466 | 0.554 | 0.597 | 0.754
18 | DQIDTYELSGG [DNM1_Y354] | 0.695 | 1.38 | 0.735 | 0.54 | 1.29 | 1.12 | 1.28 | 0.481 | 0.866 | 0.616 | 0.752 | 0.479 | 0.423 | 0.585 | 0.607 | 0.673
19 | DQVEQYKKELE [LMNA_Y259] | 0.688 | 1.32 | 0.644 | 0.561 | 0.516 | 1.2 | 0.603 | 0.527 | 0.956 | 0.878 | 0.509 | 0.534 | 0.67 | 0.66 | 0.841 | 0.956
20 | DRLPSYLDKVR [KRT12_Y139_A137P] | 0.485 | 0.62 | 0.331 | 0.408 | 0.454 | 0.665 | 0.479 | 0.656 | 0.616 | 0.494 | 0.794 | 0.436 | 0.371 | 0.756 | 0.671 | 0.94
21 | DRPSEYAARQL [ANXA13_Y90] | 0.482 | 0.598 | 0.456 | 0.445 | 0.453 | 0.655 | 0.389 | 0.437 | 0.498 | 0.579 | 0.428 | 0.341 | 0.408 | 0.699 | 0.523 | 0.746
22 | DTDSSYCIPTA [GAB1_Y373] | 0.65 | 1.99 | 0.598 | 0.592 | 0.518 | 1.18 | 0.497 | 1.01 | 1.07 | 0.73 | 0.578 | 0.519 | 0.692 | 0.854 | 0.741 | 0.95
23 | DTLLEYLENPK [CYCS_Y68_M66L] | 0.828 | 1.45 | 0.535 | 0.503 | 0.493 | 1.25 | 0.463 | 0.448 | 1.04 | 0.668 | 0.511 | 0.576 | 0.7 | 0.735 | 0.501 | 0.763
24 | DTYDPYLDIAL [USP36_Y268_V271I] | 0.968 | 1.6 | 0.892 | 0.901 | 1.47 | 1.55 | 2.42 | 0.611 | 1.32 | 0.982 | 1.06 | 0.721 | 1.03 | 0.451 | 0.451 | 0.781
25 | DVRQEYPGMIL [PLXND1_Y616] | 0.588 | 0.675 | 0.517 | 0.455 | 0.41 | 0.949 | 0.403 | 0.487 | 0.76 | 0.669 | 0.497 | 0.394 | 0.413 | 0.555 | 0.433 | 0.889
26 | DVYVSYDYGKS [SORL1_Y139] | 4.03 | 1.45 | 5.62 | 6.8 | 7.46 | 0.98 | 5.25 | 4.1 | 0.795 | 1.03 | 4.33 | 2.42 | 2.95 | 1 | 0.924 | 0.741
27 | EAEALYQTKFQ [KRT73_Y325] | 0.687 | 1.33 | 0.645 | 0.534 | 1.32 | 1.19 | 1.44 | 0.569 | 0.976 | 0.85 | 2.65 | 0.964 | 0.58 | 0.609 | 0.348 | 0.707
28 | EAMPDYKKQLR [SPATA18_Y229_S227P] | 0.444 | 0.608 | 0.394 | 0.399 | 0.309 | 0.819 | 0.378 | 0.322 | 0.623 | 0.469 | 0.296 | 0.474 | 0.378 | 0.649 | 0.406 | 0.835
29 | EAVKNYTEKRG [PBRM1_Y672_D674E] | 0.449 | 0.626 | 0.344 | 0.394 | 0.328 | 0.514 | 0.335 | 0.384 | 0.478 | 0.433 | 0.388 | 0.564 | 0.318 | 0.612 | 0.446 | 1.01
